Reference: PMC8930183, “Structure of the Pf12 and Pf41 heterodimeric complex of Plasmodium falciparum 6-cysteine proteins” (FEMS Microbes, 2022)

T1: octa-histidine tagged Pf41 D1D2 (residues 21-368) (Plasmodium falciparum, UniProt Q8I1Y0 21-368)
T1 construct: Pf41, Plasmodium falciparum 6-cysteine protein, residues K21-S368; TEV-cleavable tag left on; loaded on NTA sensors; also called tagged wildtype Pf41; source: Spodoptera frugiperda 21 cells, secreted into growth media, purified as tagged protein (Ni-IMAC, SEC); not shown: His8, N-terminal, kept
T1 sequence: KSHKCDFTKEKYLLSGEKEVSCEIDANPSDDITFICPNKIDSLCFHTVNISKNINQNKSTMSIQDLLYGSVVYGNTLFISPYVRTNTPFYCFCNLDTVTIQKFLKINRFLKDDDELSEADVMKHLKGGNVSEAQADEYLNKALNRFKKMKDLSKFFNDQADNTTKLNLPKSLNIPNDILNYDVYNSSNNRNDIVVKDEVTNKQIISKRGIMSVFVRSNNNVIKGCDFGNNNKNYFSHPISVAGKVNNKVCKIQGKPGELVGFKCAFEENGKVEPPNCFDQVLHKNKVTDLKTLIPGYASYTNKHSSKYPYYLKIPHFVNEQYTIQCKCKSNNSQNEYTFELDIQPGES

T2: Pf12 labelled with DyLight 488 (Plasmodium falciparum (sequence as 3D7), DyLight 488 (N-hydroxysuccinimide ester), about 2.4 dye per protein)
T2 construct: Pf12, Plasmodium falciparum 6-cysteine protein; The FRET methods say only 'Pf12'; also called Pf12-DL488
T2 chain: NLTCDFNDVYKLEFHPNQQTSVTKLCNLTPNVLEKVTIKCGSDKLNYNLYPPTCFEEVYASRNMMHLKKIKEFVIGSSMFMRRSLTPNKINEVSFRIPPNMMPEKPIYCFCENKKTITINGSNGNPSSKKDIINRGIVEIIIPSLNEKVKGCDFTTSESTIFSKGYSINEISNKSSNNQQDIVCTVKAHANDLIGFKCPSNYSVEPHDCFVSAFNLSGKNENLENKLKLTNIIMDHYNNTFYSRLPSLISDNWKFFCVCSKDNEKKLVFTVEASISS


Legend:
Conditions in all cases: both partners purified
[1] = biological target: T3, Pf41 D1D2 (residues 21-368), untagged (Plasmodium falciparum, UniProt Q8I1Y0); test: BLI; Octet RED96e; nanobodies loaded on NTA sensors; untagged Pf12 or Pf41 (6-200 nM) or their domains in solution; PBS pH 7.4, 0.1% BSA, 0.05% TWEEN-20, 25°C; global 1:1 fit
T3 construct: Pf41, Plasmodium falciparum 6-cysteine protein, residues K21-S368 (D1 with the inserted-domain-like region ID, and D2); lacks the signal peptide and ten C-terminal residues; After TEV cleavage three residues, GAS, remain at the N-terminus as cloning artefacts; N-glycosylation sites kept; treated with PNGase F before crystallisation; also called Pf41 wildtype; source: Spodoptera frugiperda 21 …

[2] = biological target: T4, Pf12 D1D2 (residues 28-304), untagged (Plasmodium falciparum, UniProt C6KSX0); test: as above
T4 construct: Pf12, Plasmodium falciparum 6-cysteine protein, residues N28-S304 (domains D1 and D2); lacks the signal peptide and the GPI-anchor site; After TEV cleavage three residues, GAS, remain at the N-terminus as cloning artefacts; N-glycosylation sites kept; treated with PNGase F before crystallisation; also called Pf12 wildtype; source: Spodoptera frugiperda 21 cells, secreted into growth media, …

[3] = biological target: T5, Pf12 D2 (residues E174-S304) (Plasmodium falciparum, UniProt C6KSX0); test: as above
T5 construct: Pf12, Plasmodium falciparum, C-terminal 6-cys domain D2, residues E174-S304; also called Pf12 D2 domain; source: Spodoptera frugiperda 21 cells, purified by the same protocol as Pf12 D1D2; not shown: His8, N-terminal, cleaved

[4] = biological target: T1, octa-histidine tagged Pf41 D1D2 …; test: BLI; Octet RED96e; octa-histidine tagged Pf41 loaded on NTA sensors; untagged Pf12 wildtype, mutant or single domain 31-1000 nM; PBS pH 7.4, 0.1% BSA, 0.05% TWEEN-20, 25°C; read-out relative maximum response against wildtype
[5] = biological target: T2, Pf12 labelled with DyLight 488; test: FRET or BRET; Pf12-DL488 and Pf41-DL594 mixed 1:1 with five-fold excess of nanobody; FRET signal relative to the no-nanobody control

Row | Binder | binding result [1] | binding result [2] | binding result [3] | binding result [4] | further results
1 | nanobody B5 (VHH, alpaca, immunised with Pf12-Pf41 complex; Pf12-specific; The 'Nb B5 of PDB ID 7KJH' used as a search model may be another nanobody of the same label; source: E. coli WK6, periplasmic extract, purified (HisTrap, SEC)) VHH: QVQLQESGGGLVQPGGSLRLSCAASGFTLDEYAMGWFRQAPGKEREGISCISSSDGTTFYADSVKGRFTISRDNAKNTVYLQMNSLKPEDTAVYYCATDCVGSYSRYWGQGTQVTVSS | no binding |  |  |  | Kd [2]: < 0.01 nM
2 | nanobody C12 (VHH, alpaca, immunised with Pf12-Pf41 complex; Pf12-specific; source: E. coli WK6, periplasmic extract, purified (HisTrap, SEC)) VHH: QVQLQESGGGLVQAGGSLRLSCAASGRTFSSYSMGWFRQAPGKQRELVAAISSGGSTDYTDSVKGRFTISRDNAKNTVYLQMNSLKPEDTAVYYCAAGDYSDYVGMWDIWGQGTQVTVSS | no binding | binds | binds |  | 
3 | Pf12 D1D2 F241L (domain or fragment, Pf12, Plasmodium falciparum, residues N28-S304 (D1D2); source: Spodoptera frugiperda 21 cells, purified (Ni-IMAC, TEV cleavage, SEC); not shown: His8, N-terminal, cleaved) NLTCDFNDVYKLEFHPNQQTSVTKLCNLTPNVLEKVTIKCGSDKLNYNLYPPTCFEEVYASRNMMHLKKIKEFVIGSSMFMRRSLTPNKINEVSFRIPPNMMPEKPIYCFCENKKTITINGSNGNPSSKKDIINRGIVEIIIPSLNEKVKGCDFTTSESTIFSKGYSINEISNKSSNNQQDIVCTVKAHANDLIGFKCPSNYSVEPHDCFVSALNLSGKNENLENKLKLTNIIMDHYNNTFYSRLPSLISDNWKFFCVCSKDNEKKLVFTVEASISS |  |  |  | binds | 
4 | Pf12 D1D2 R109A (domain or fragment, Pf12, Plasmodium falciparum, residues N28-S304 (D1D2); source: Spodoptera frugiperda 21 cells, purified (Ni-IMAC, TEV cleavage, SEC); not shown: His8, N-terminal, cleaved) NLTCDFNDVYKLEFHPNQQTSVTKLCNLTPNVLEKVTIKCGSDKLNYNLYPPTCFEEVYASRNMMHLKKIKEFVIGSSMFMARSLTPNKINEVSFRIPPNMMPEKPIYCFCENKKTITINGSNGNPSSKKDIINRGIVEIIIPSLNEKVKGCDFTTSESTIFSKGYSINEISNKSSNNQQDIVCTVKAHANDLIGFKCPSNYSVEPHDCFVSAFNLSGKNENLENKLKLTNIIMDHYNNTFYSRLPSLISDNWKFFCVCSKDNEKKLVFTVEASISS |  |  |  | binds | 
5 | Pf12 D1D2 H234A (domain or fragment, Pf12, Plasmodium falciparum, residues N28-S304 (D1D2); source: Spodoptera frugiperda 21 cells, purified (Ni-IMAC, TEV cleavage, SEC); not shown: His8, N-terminal, cleaved) NLTCDFNDVYKLEFHPNQQTSVTKLCNLTPNVLEKVTIKCGSDKLNYNLYPPTCFEEVYASRNMMHLKKIKEFVIGSSMFMRRSLTPNKINEVSFRIPPNMMPEKPIYCFCENKKTITINGSNGNPSSKKDIINRGIVEIIIPSLNEKVKGCDFTTSESTIFSKGYSINEISNKSSNNQQDIVCTVKAHANDLIGFKCPSNYSVEPADCFVSAFNLSGKNENLENKLKLTNIIMDHYNNTFYSRLPSLISDNWKFFCVCSKDNEKKLVFTVEASISS |  |  |  | binds | 
6 | Pf12 D1D2 M108A (domain or fragment, Pf12, Plasmodium falciparum, residues N28-S304 (D1D2); source: Spodoptera frugiperda 21 cells, purified (Ni-IMAC, TEV cleavage, SEC); not shown: His8, N-terminal, cleaved) NLTCDFNDVYKLEFHPNQQTSVTKLCNLTPNVLEKVTIKCGSDKLNYNLYPPTCFEEVYASRNMMHLKKIKEFVIGSSMFARRSLTPNKINEVSFRIPPNMMPEKPIYCFCENKKTITINGSNGNPSSKKDIINRGIVEIIIPSLNEKVKGCDFTTSESTIFSKGYSINEISNKSSNNQQDIVCTVKAHANDLIGFKCPSNYSVEPHDCFVSAFNLSGKNENLENKLKLTNIIMDHYNNTFYSRLPSLISDNWKFFCVCSKDNEKKLVFTVEASISS |  |  |  | binds | 
7 | Pf12 D1D2 R110A (domain or fragment, Pf12, Plasmodium falciparum, residues N28-S304 (D1D2); source: Spodoptera frugiperda 21 cells, purified (Ni-IMAC, TEV cleavage, SEC); not shown: His8, N-terminal, cleaved) NLTCDFNDVYKLEFHPNQQTSVTKLCNLTPNVLEKVTIKCGSDKLNYNLYPPTCFEEVYASRNMMHLKKIKEFVIGSSMFMRASLTPNKINEVSFRIPPNMMPEKPIYCFCENKKTITINGSNGNPSSKKDIINRGIVEIIIPSLNEKVKGCDFTTSESTIFSKGYSINEISNKSSNNQQDIVCTVKAHANDLIGFKCPSNYSVEPHDCFVSAFNLSGKNENLENKLKLTNIIMDHYNNTFYSRLPSLISDNWKFFCVCSKDNEKKLVFTVEASISS |  |  |  | binds | 
8 | Pf12 D1D2 M106A (domain or fragment, Pf12, Plasmodium falciparum, residues N28-S304 (D1D2); source: Spodoptera frugiperda 21 cells, purified (Ni-IMAC, TEV cleavage, SEC); not shown: His8, N-terminal, cleaved) NLTCDFNDVYKLEFHPNQQTSVTKLCNLTPNVLEKVTIKCGSDKLNYNLYPPTCFEEVYASRNMMHLKKIKEFVIGSSAFMRRSLTPNKINEVSFRIPPNMMPEKPIYCFCENKKTITINGSNGNPSSKKDIINRGIVEIIIPSLNEKVKGCDFTTSESTIFSKGYSINEISNKSSNNQQDIVCTVKAHANDLIGFKCPSNYSVEPHDCFVSAFNLSGKNENLENKLKLTNIIMDHYNNTFYSRLPSLISDNWKFFCVCSKDNEKKLVFTVEASISS |  |  |  | binds | 
9 | Pf12 D1D2 R123A (domain or fragment, Pf12, Plasmodium falciparum, residues N28-S304 (D1D2); source: Spodoptera frugiperda 21 cells, purified (Ni-IMAC, TEV cleavage, SEC); not shown: His8, N-terminal, cleaved) NLTCDFNDVYKLEFHPNQQTSVTKLCNLTPNVLEKVTIKCGSDKLNYNLYPPTCFEEVYASRNMMHLKKIKEFVIGSSMFMRRSLTPNKINEVSFAIPPNMMPEKPIYCFCENKKTITINGSNGNPSSKKDIINRGIVEIIIPSLNEKVKGCDFTTSESTIFSKGYSINEISNKSSNNQQDIVCTVKAHANDLIGFKCPSNYSVEPHDCFVSAFNLSGKNENLENKLKLTNIIMDHYNNTFYSRLPSLISDNWKFFCVCSKDNEKKLVFTVEASISS |  |  |  | binds | 
10 | nanobody A10 (VHH, alpaca, immunised with Pf12-Pf41 complex; Pf12-specific; source: E. coli WK6, periplasmic extract, purified (HisTrap, SEC)) VHH: QVQLQESGGGFVQPGGSLRLSCAASGFTLDYYFIGWFRQAPGKEREGVSCISSSDGSTYYAESVKGRFTISRDNAKNTVYLQMNSLKPEDTAVYYCATDKIVCSSDFIVDYGMDSRGKGTQVTVSS | no binding |  |  |  | Kd [2]: < 0.01 nM
11 | nanobody G7 (VHH, alpaca, immunised with Pf12-Pf41 complex; Pf12-specific; also called Nb G7; source: E. coli WK6, periplasmic extract, purified (HisTrap, SEC)) VHH: QVQLQESGGGLVQAGGSLRLSCAASGRTFSSYGMGWFRQAPGTEREFVAAISWSGDSTYYADSVKGRFTISIDKAKNTVYLQMNSLKPEDTAVYYCAADHALVVGGTYNYWGQGTQVTVSS | no binding |  |  |  | percent reduction of the Pf12-Pf41 FRET signal [5]: ~80%; Kd [2]: ~25 nM
12 | nanobody H11 (VHH, alpaca, immunised with Pf12-Pf41 complex; Pf12-specific; source: E. coli WK6, periplasmic extract, purified (HisTrap, SEC)) VHH: QVQLQESGGGLVQPGGSLRLSCAGSGFTLDHYAIGWFRQAPGKEREGVSCIISSDSSTYYTDSVKGRFTISRDNAKNTVYLQMNSLKPEDTAVYYCATEKIVCASGFIVDYGMDYCGKGTQVTVSS | no binding | binds | binds |  | 
13 | nanobody C9 (VHH, alpaca, immunised with Pf12-Pf41 complex; Pf12-specific; source: E. coli WK6, periplasmic extract, purified (HisTrap, SEC)) VHH: QVQLQESGGGLVQPGGSLRLSCAASGFTLDYYAIGWFRQAPGKEREGVSCISSSGGSTYYADSVKGRSTISRDNAKNTVYLQMNSLKPEDTAVYYCATDCLRDYGLEYVPGRYDYWGQGTQVTVSS | no binding |  |  |  | Kd [2]: < 0.01 nM
14 | nanobody C1 (VHH, alpaca, immunised with Pf12-Pf41 complex; Pf12-specific; source: E. coli WK6, periplasmic extract, purified (HisTrap, SEC)) VHH: QVQLQESGGGLVQPGASLRLSCTVSGIIMADHAIGWFRQAPGKEREGIACFIRSDGTTYYSDSAKGRFTISRDNAKNTVYLQMNSLKPEDTADYYCATGKIVCANGFIVDYGSDYRGKGTQVTVSS | no binding | binds | binds |  | 
15 | nanobody B11 (VHH, alpaca, immunised with Pf12-Pf41 complex; Pf12-specific; source: E. coli WK6, periplasmic extract, purified (HisTrap, SEC)) VHH: QVQLQESGGGLVQAGGSLRLSCAASGRTFSSYAMGWFRQAPGKEREFVAAISWNGGRTYYADSVKGRFTISRDNAKNTVYLQMNSLKPEDTAVYYCAADPTGTVDDETGIYVYWGQGTQVTVSS | no binding | binds | binds |  | 
16 | nanobody D12 (VHH, alpaca, immunised with Pf12-Pf41 complex; Pf12-specific; source: E. coli WK6, periplasmic extract, purified (HisTrap, SEC)) VHH: QVQLQESGGGLVEAGGSLRLSCAASTRTFSSLVMGWFRQAPGKERELVAAISRSGDSTDYTDSVKGRFTISRDNAKNTVYLQMNSLKPEDTAVYSCAADPTGVDSSLAVGLWVYWGQGTQVTVSS | no binding | binds | binds |  | 
